Common to all, as to test: BLI
Test [1] addresses recombinant SARS-CoV-2 RBD B.1.1.7/N501Y (SARS-CoV-2, Alpha (B.1.1.7) RBD with N501Y).
Test [2] has as its target recombinant SARS-CoV-2 RBD B.1.351/K417N, E484K, N501Y (SARS-CoV-2, B.1.351 (Beta), RBD K417N, E484K, N501Y).
Test [3] concerns the target recombinant SARS-CoV-2 RBD B.1.617.2/L452R, T478K (SARS-CoV-2, B.1.617.2 (Delta), RBD L452R, T478K).
Test [4] has as its target recombinant SARS-CoV-2 RBD P.1/K417T, E484K, N501Y (SARS-CoV-2, P.1 (Gamma), RBD K417T, E484K, N501Y).

The term Kd denotes the constant that tells how readily two partners part at equilibrium. In the case of NIH-CoVnb-112 (VHH), the Kd in test [1] came to 3 nM; in test [2], 4.28 nM; in test [3], 1.66 nM; in test [4], 4.16 nM.
